Literature values, collected in article PMC12086256.

Molecular target: VEGFR1 (Homo sapiens) (UniProt P17948)
Chain of UniProt P17948 (P17948 27-758): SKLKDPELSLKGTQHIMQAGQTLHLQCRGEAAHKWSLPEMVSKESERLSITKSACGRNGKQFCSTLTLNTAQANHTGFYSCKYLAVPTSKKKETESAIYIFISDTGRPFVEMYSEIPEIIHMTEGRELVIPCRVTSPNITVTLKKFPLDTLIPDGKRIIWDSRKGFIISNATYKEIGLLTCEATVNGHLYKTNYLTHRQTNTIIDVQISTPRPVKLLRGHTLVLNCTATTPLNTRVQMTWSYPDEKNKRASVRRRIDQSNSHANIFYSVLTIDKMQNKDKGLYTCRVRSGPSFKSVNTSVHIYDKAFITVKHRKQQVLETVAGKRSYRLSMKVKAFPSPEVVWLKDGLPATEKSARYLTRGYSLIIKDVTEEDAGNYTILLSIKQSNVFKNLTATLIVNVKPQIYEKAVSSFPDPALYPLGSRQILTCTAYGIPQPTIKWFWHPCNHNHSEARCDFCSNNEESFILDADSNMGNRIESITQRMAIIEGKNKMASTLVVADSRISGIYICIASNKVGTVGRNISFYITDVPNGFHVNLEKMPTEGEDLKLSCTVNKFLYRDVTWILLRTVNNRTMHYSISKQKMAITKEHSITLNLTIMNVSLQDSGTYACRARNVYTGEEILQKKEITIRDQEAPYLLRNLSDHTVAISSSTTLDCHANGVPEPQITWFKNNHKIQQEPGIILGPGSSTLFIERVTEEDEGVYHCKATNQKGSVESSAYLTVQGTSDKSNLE

Kd: 2 nM
Substance: VEGF-B167 (from UniProt P49765)
